In this test the target is human CD40 expressed on cells (human) (UniProt P25942). Kind of test: cell-based or functional assay.
Chain of human CD40 expressed on cells (human) (P25942 21-277): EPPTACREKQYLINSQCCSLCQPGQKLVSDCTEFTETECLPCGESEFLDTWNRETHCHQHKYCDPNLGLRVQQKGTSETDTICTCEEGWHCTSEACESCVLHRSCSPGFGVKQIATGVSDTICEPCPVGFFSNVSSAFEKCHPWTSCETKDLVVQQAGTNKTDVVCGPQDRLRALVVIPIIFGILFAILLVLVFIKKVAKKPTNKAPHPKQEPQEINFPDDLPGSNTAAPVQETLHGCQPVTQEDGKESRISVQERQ

Substance “CD40L (positive control, produced in 293F cells) (ligand)” returned a GFP positive rate for Jurkat/NF-kB-GFP+hCD40 single clones after CD40L stimulation (100 nM) of 94.7%.

The values are drawn from US20220324988A1.
